# B1: mAb 623 (antibody, V domains shown)
# VH: EVQLVESGGGLVKPGGSLRLSCAASGFTFSNAWMSWVRQAPGKGLEWVGRIRSEIDGGTTNYAAPVKGRFTISRDDSKNTLYLQMNSLKTEDTAVYYCATDQVGAYYGDYYGMDVWGQGTTVTVSS
# VL: SYELTQPPSVSVSPGQTARITCSGDALPEKYAYWYQQKSGQAPVLVIYEDSKRPSGIPERFSGSSSGTMATLTISGAQVEDEADYYCHSTDSSGNHGVFGGGTKLTVLG
# notes: also called sc623
# Assays:
# [1] = target: T1, human IL-13 (source not stated for the assay) (human, UniProt P35225 35-146, limits assumed); assay: cell-based or functional assay
# marmoset IL-13 = marmoset IL-13 (marmoset, UniProt A0A8I3WT33 35-145); assay: KinExA, n-curve analysis
# [2] = target: T1, human IL-13 (source not stated for the …); assay: cell-based or functional assay; remark: listed apart in the source
# [3] = target: T1, human IL-13 (source not stated for the …); assay: cell-based or functional assay; remark: listed apart in the source
# native human IL-13 [4] = target: T2, native human IL-13 (human, UniProt P35225 35-146, limits assumed); assay: KinExA kinetic, direct method
# T2 construct: also called hIL-13
# native human IL-13 [5] = target: T2, native human IL-13; assay: KinExA, equilibrium in solution
# native macaque IL-13 = target: T3, native macaque IL-13 (macaque monkey); assay: KinExA, equilibrium in solution
# T3 construct: also called macaque monkey IL-13
# native human IL-13 [6] = target: T2, native human IL-13; assay: KinExA kinetic, injection method
# [7] = target: T4, Human IL-13-Mouse IL-13 Helix B (human IL-13 with mouse Helix B, UniProt P35225 35-146, limits assumed); assay: ELISA on secreted IL-13 chimeric proteins
# T4 construct: Expressed and secreted chimeric protein; also called Mo HelixB
# T4 chain: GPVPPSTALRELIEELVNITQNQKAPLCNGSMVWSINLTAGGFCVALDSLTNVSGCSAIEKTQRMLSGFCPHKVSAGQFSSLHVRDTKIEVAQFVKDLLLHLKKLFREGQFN
# [8] = target: T5, Human IL-13-Mouse IL-13 Helix C (human IL-13 with mouse Helix C, UniProt P35225 35-146, limits assumed); assay: ELISA on secreted IL-13 chimeric proteins
# T5 construct: Expressed and secreted chimeric protein; also called Mo HelixC
# T5 chain: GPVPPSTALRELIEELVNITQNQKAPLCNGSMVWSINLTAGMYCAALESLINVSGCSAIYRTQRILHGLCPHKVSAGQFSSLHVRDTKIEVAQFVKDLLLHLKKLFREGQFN
# mouse IL-13 = target: T6, mouse IL-13 (mouse, UniProt P20109 22-131, limits assumed); assay: epitope mapping with mouse IL-13 chimeric molecules (ELISA)
# T6 construct: also called murine IL-13
# T6 sequence (looked up): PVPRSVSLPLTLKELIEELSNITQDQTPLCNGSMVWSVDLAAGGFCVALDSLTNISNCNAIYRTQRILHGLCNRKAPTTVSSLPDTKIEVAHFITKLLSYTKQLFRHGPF
# native human IL-13 [9] = target: T2, native human IL-13; assay: KinExA kinetic, direct method; koff calculated from kon and KD
# native human IL-13 [10] = target: T2, native human IL-13; assay: KinExA kinetic, injection method; koff calculated from kon and KD
# [11] = target: T7, Recombinant Human IL-13 (R & D 213-IL-005) (human, UniProt P35225 35-146); assay: SPR (Biacore 2000), mAb captured on goat anti-human surface, IL-13 (R&D) injected, 1:1 model
# T7 construct: also called IL-13 antigen (R&D Systems)
# native human IL-13 [12] = target: T2, native human IL-13; assay: KinExA; KD from the equilibrium experiments, printed in the kinetic table (injection method row)
# [13] = target: T8, Human IL-13-rabbit Fc fusion protein (human IL-13 fused to rabbit Fc); assay: ELISA on plates coated with IL-13RbFc, detection with rabbit anti Hu IgG Fc HRP (paragraph 267 to paragraph 269)
# T8 construct: also called IL-13-RbFc; IL-13 Rb Fc
# [14] = target: T7, Recombinant Human IL-13 (R & D …); assay: SPR (Biacore 2000) high resolution, mAb captured on goat anti-human Fc pAb, IL-13 (R&D Systems) 12.6-0.394 nM, 23 C, global 1:1 fit
# native human IL-13 [15] = target: T2, native human IL-13; assay: KinExA; KD from the equilibrium experiments, printed in the kinetic table (direct method row); KinExA kinetic, direct method row; KD taken from the equilibrium experiments
# T3 sequence (Q864V6 19-132): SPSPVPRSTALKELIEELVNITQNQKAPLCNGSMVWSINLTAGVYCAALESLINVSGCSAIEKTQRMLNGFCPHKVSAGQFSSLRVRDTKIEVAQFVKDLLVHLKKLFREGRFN
# T8 sequence (chain, as listed by the source limits assumed): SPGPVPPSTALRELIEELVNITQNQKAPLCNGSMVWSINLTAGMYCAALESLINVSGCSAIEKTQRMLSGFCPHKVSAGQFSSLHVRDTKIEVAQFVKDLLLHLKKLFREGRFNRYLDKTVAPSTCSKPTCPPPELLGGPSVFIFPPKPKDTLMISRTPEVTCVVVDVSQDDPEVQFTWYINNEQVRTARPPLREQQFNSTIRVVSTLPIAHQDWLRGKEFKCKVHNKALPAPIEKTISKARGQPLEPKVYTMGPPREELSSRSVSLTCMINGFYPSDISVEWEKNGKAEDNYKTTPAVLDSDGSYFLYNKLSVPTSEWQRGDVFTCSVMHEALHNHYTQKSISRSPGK
# marmoset IL-13, sequence (A0A8I3WT33 entry or part of it): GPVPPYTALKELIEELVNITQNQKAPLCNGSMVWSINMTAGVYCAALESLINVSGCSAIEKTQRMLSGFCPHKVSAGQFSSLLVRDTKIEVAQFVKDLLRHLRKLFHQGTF
binder,measurement,setting,value
B1,"EC50, HDLM-2 proliferation assay (3H-thymidine)",[1],4.5 nM
same,"EC50, L-1236 proliferation assay (3H-thymidine)",[1],0.39 nM
same,"IC50, IL-13-induced CD23 expression on whole blood B cells (FACS)",[1],6.2 nM
same,Kd,marmoset IL-13,0.403 nM
same,"IC50, IL-13 induced eotaxin release, Average",[2],0.036 nM
same,"IC50, IL-13 induced eotaxin release, n = 1",[2],0.031 nM
same,"IC50, IL-13 induced eotaxin release, n = 2",[2],0.04 nM
same,"IC50, IL-13 induced eotaxin release, n = 3",[2],0.035 nM
same,"IC50, eotaxin production by HDFa cells, 300 pM IL-13",[3],56 pM
same,"IC50, eotaxin production by HDFa cells, 600 pM IL-13",[3],113 pM
same,kon,native human IL-13 [4],1.1e+07 M⁻¹ s⁻¹
same,Kd,native human IL-13 [5],0.024 nM
same,Kd,native macaque IL-13,0.037 nM
same,kon,native human IL-13 [6],1.5e+07 M⁻¹ s⁻¹
same,binding result,[7],binds
same,binding result,[8],binds
same,binding result,mouse IL-13,no binding
same,koff,native human IL-13 [9],0.00027 s⁻¹
same,koff,native human IL-13 [10],0.00036 s⁻¹
same,Kd,[11],0.052 nM
same,koff,[11],0.00025 s⁻¹
same,kon,[11],4.9e+06 M⁻¹ s⁻¹
same,Kd,native human IL-13 [12],0.024 nM
same,binding result,[13],binds
same,Kd,[14],0.034 nM
same,kon,[14],7.3e+06 M⁻¹ s⁻¹
same,Kd,native human IL-13 [15],0.024 nM

# Source: US20100047253A1 (Amgen, published 2010)
